Test results: article PMC8490876, “Functional Characterization of a L-2-Haloacid Dehalogenase From Zobellia galactanivorans Dsij^T Suggests a Role in Haloacetic Acid Catabolism and a Wide Distribution in Marine Environments” (Frontiers in Microbiology, 2021)

Biological target: recombinant ZgHAD, L-2-haloacid dehalogenase of Zobellia galactanivorans Dsij^T (Zobellia galactanivorans Dsij^T)
Assay: SEC; gel filtration on HiLoad 16/600 Superdex 200 pg after nickel affinity purification; oligomeric state of the recombinant protein in solution

stoichiometry N: 2
Substance: recombinant ZgHAD, L-2-haloacid dehalogenase of Zobellia galactanivorans Dsij^T (enzyme)
